Positions count from the first letter of the chain named. Where “and” joins values, the source holds several entries; their conditions need not be identical. Equal values may be shown once.
Target: T1, human integrin avb8 (human)
T1 chain 1: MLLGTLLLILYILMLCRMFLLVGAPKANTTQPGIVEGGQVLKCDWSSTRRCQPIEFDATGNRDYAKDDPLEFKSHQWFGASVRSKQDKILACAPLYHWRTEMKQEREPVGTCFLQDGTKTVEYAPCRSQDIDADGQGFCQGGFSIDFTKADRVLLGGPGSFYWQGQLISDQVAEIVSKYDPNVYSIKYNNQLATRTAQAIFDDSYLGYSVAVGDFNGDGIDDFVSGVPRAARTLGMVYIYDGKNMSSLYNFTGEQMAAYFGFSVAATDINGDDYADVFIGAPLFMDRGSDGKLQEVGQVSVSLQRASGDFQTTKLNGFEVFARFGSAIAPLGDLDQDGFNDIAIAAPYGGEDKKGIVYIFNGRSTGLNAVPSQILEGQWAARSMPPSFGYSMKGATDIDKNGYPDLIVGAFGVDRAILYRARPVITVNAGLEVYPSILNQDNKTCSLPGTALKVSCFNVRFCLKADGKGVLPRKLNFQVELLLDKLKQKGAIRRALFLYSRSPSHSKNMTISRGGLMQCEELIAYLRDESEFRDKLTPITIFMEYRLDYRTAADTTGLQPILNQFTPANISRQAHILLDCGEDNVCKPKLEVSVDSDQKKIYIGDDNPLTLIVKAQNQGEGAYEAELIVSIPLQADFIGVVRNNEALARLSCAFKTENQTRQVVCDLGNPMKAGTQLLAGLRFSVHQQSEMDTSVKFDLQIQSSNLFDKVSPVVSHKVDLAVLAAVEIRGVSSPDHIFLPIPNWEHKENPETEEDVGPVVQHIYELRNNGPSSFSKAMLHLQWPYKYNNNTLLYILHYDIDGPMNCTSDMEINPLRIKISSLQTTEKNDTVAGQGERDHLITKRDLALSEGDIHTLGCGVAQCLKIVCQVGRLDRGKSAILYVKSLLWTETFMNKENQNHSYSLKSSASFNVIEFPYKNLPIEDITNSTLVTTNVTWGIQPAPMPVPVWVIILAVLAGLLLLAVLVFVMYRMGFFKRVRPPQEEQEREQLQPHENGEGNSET
T1 chain 2: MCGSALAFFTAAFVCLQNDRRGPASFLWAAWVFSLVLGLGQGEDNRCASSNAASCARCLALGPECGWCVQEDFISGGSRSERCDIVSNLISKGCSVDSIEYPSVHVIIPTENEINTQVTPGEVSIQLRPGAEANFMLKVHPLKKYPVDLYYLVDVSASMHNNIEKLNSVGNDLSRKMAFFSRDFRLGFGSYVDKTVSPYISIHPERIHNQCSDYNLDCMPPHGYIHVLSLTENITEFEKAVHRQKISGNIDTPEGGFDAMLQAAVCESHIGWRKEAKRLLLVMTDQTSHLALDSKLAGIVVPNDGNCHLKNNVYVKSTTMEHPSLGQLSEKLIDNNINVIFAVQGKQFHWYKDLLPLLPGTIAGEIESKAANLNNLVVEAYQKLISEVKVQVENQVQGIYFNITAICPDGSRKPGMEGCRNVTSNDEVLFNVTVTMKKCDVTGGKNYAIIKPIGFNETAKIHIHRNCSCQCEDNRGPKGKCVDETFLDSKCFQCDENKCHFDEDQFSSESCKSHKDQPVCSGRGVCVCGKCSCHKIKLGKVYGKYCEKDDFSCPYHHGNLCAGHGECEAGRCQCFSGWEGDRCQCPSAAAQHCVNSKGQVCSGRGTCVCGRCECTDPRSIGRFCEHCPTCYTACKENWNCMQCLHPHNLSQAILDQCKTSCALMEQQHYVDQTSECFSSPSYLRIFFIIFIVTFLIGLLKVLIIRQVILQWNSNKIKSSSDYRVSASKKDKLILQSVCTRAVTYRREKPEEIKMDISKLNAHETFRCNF
Experiment: SPR 25C

B1: ADWA11 VH05/VK01 (VH05-2_VK01) Fab (antibody, V domains shown)
VH: EVQLVESGGGLVQPGGSLRLSCAASGFNIKDYYMNWVRQAPGKGLEWVGWIDPDNGNTIYDPKFQGRFTISADTSKNSAYLQMNSLRAEDTAVYYCARRLLMDYWGQGTLVTVSS
VL: DIQMTQSPSSLSASVGDRVTITCRSTKSLLHFNGNTYLFWYQQKPGKAPKRLIYYMSNLASGVPSRFSGSGSGTDFTLTISSLQPEDFATYYCMQSLEYPFTFGQGTKVEIK
In the case of B1, the Kd is reported as 209 pM and 118 pM.

B2: Mouse hybridoma ADWA-11 Fab (antibody, V domains shown)
VH: EVQLQQSGAELVRPGAFVKLSCKASGFNIKDYYMNWVLQRPEQGLEWIGWIDPDNGNTIYDPKFQGKASITADTSSNTAYLQLSSLTSEDTAVYYCARRLLMDYWGQGTSVTVSS
VL: DIVMTQAAPSVPVTPGESVSISCRSTKSLLHFNGNTYLFWFLQRPGQSPQRLIYYMSNLASGVPDRFSGRGSGTDFTLRISRVEAEDVGVYYCMQSLEYPFTFGTGTKLEIK
B2 gave a Kd of 536 pM.

B3: ADWA11 2.4 Fab (antibody, V domains shown)
VH: B1 VH with N55Q, D61E
VL: B1 VL with L30S, N58S, M94Q, Q105G
For B3, the Kd was < 200 pM.
